According to paper PMC12354883:

Target: 5c.c7 TCR on 5c.c7 αβ TCR-transgenic CD4+ T-cells (mouse)
Assay: flow cytometry on cells; time curve: T-cells labeled with AF555-H57-scFV (1800 ng per 1 Mio T-cells), washed, kept on ice, at room temperature or at 37 °C; samples taken after 0, 5, 10, 30, 60 and 120 min

time after which 50% of receptor:ligand bonds are still intact, room temperature: > 3 h
Substance: fluorescently labeled H57 scFV (J1), TCR β-reactive H57 single-chain fragment
